Patent US9028810B2, “Composition for inducing migration of neural stem cells containing periostin as effective ingredient” (Ajou University Industry—Academic Cooperations Foundatin, priority 2010, dated 2015)

Tests used:
[1] = test system: HB1.F3 human neural stem cell line; assay: Boyden chamber migration assay, HB1.F3 neural stem cells; format: cell-based; conditions: for increase in ability to induce the migration of neural stem cells compared to not treated: Boyden chamber
Experimental: (§1) In order to examine the effect of periostin on the migration of neural stem cells, a Boyden chamber assay was performed using two human neural stem cell lines (HB1.F3 and HB1.F5), thereby determining whether human neural stem cells migrated in response to periostin in vitro. For controls, VEGF (vascular endothelial growth factor) was used as a positive control, and FBS-DMEM medium was used as a negative control.
(§2) Specifically, cultured neural stem cells were detached with 0.05% trypsin, washed with DMEM medium, and then re-suspended in DMEM medium, after which 5×10^4 cells seeded into an upper chambers (Costar Transwell) in 200 μl of 10% FBS-containing DMEM medium. After one day, a lower chamber was treated with various concentrations of periostin or VEGF. The periostin was used at concentrations of 5, 10 and 20 μg/ml, and the VEGF was used at concentrations of 5, 10 and 20 ng/ml. 10% FBS-DMEM medium was used as a negative control. After 12 hours, in order to determine the number of cells that migrated from the upper chamber through a 8-μm porous polycarbonate membrane to the lower portion of the membrane in response to the stimulation of the lower chamber, the migrated neural stem cells were stained with hematoxylin and then counted.
(§3) After one day, a lower chamber was treated with 10 μg/ml of periostin, and after 4 hours, 8 hours, 12 hours and 24 hours, the migrated cells were stained with H&E (hematoxylin & eosin), counted and photographed (Olympus BX51, Japan).

[2] = test system: DCX and ERK in neural stem cells; assay: Transwell membrane immunostaining of ERK and DCX in migrated cells; format: cell-based, human; conditions: periostin 10 μg/ml, 12 hours; for cell migration: VEGF 10 ng/ml; for location of DCX in migrated cells: with or without inhibitor
Experimental: To analyze the ERK and DCX affection of migrated cells, transwell membrane immunostaining was performed using ERK and DCX antibodies (Cell signaling tech., Danver, Mass.).
Cultured neural stem cells were detached with 0.05% trypsin, washed with DMEM medium and re-suspended in DMEM medium, after which 5×10^4 neural stem cells were inoculated into an upper chamber (Costar Transwell) in 200 μl of 10% FBS-containing DMEM medium. After one day, a lower chamber was treated with each of VEGF (10 ng/ml), periostin (10 μg/ml) and periostin+inhibitor. After 12 hours, the changes in locations of DCX and ERK in the cells that migrated from the upper chamber through the 8-μm porous polycarbonate membrane to the lower portion of the membrane in response to the stimulation of the lower chamber were examined.
Next, the membrane was washed with PBS, blocked twice with a solution of 5% goat serum and 0.5% triton X-100 in PBS for 30 minutes, and then washed with a solution of 0.5% BSA (bovine serum albumin) in PBS for 15 minutes. After this, the membrane was incubated with a 1:500 dilution of goat polyclonal human DCX antibody and a 1:1000 dilution of rabbit polyclonal human ERK antibody at 4° C. overnight, and then washed twice with PBS for 15 minutes each time. Next, the membrane was incubated with biotin-conjugated anti-rabbit secondary antibody at room temperature for 1 hour and washed trice with PBS, after which […] was detected by staining the membrane using an avidin-biotin kit (Vector, Calif.) and a diaminbenzidin peroxidase (DAB) kit (Vector, Calif.).

neural stem cells = assay: In vitro migration assay using ERK pathway and CDK5 pathway inhibitors; format: cell-based, human; conditions: 12 hours
Source text: It has been reported that, in the development of the central nervous system, neural stem cells migrate from the subventricular zone to cortex through radial glial cells using the ERK (extracellular signal regulated kinase) and CDK5 signaling pathways, and in the neuronal migration, DCX participated in nucleus translocation, neucleokinesis (Niethammer et al., 2000).
Cultured neural stem cells were detached with 0.05% trypsin, washed with DMEM medium and re-suspended in DMEM medium, after which 5×10^4 cells were inoculated into an upper chamber (Costar Transwell) in 200 μl of 10% FBS-containing DMEM medium.
After 12 hours, in order to determine the number of cells that migrated from the upper chamber through a 8-μm porous polycarbonate membrane to the lower portion of the membrane in response to the stimulation of the lower chamber, the migrated neural stem cells were stained with hematoxylin & eosin and counted.

[3] = test system: HB1.F5 human neural stem cell line; assay: Boyden chamber migration assay, HB1.F5 neural stem cells; format: cell-based
Experimental: as §1
as §2, with “The periostin was used at concentrations of 5, 10 and 20 μg/ml, and the VEGF was used at concentrations of 5, 10 and 20 ng/ml. 10% FBS-DMEM medium was used as a negative control.” left out
as §3

[4] = test system: PI3K/AKT signaling pathway (PI3K-AKT-mTOR-CDK5-Nudel1, PAK1); assay: Western blotting of FAK / PI3K-AKT signaling pathway after periostin treatment; format: cell-based, human
Experimental: The FAK signaling pathway is linked to kinases as its downstream pathways and transduces signals. With respect to cell migration, the PI3K/AKT signaling pathway (PI3K-AKT-mTOR-CDK5-Nudel1, PAK1) is frequently used as the downstream pathway of FAK, and thus the following experiment was performed in order to determine the kinase activation pathway.
First, neural stem cells treated with periostin were washed with PBS and lysed with PMSF and a protease inhibitor in RIPA buffer (0.5% sodiumdeoxycholate, 0.1% sodiumdodecyl sulfate, 1% NP-40, PBS). Protein concentration was determined by a Bio-Rad-DC protein assay (Bio-Rad, Hercules, Calif., US). The samples were adjusted to the same protein concentration, after 30 μg of each protein was separated on SDS-PAGE gel. Then, protein samples were transferred to an immobilon-P membrane (Millipore Corp., MA, US). For protein detection, the membrane was incubated in TBS-T 5% skim milk at room temperature for 30 minutes and washed three times with TBS-T for 15 minutes each time. Then, the membrane was incubated with primary antibodies of FAK, pFAK, PAK and pPAK (1:1000 dilution; Epitomics) in 5% BSA-TBS-T overnight at 4° C. Then, the membrane was washed three times with TBS-T for 15 minutes each time. Then, the membrane was incubated with secondary anti-rabbit antibody (1:2000 dilution; Zymed, Calif., USA) at room temperature for 1 hour. The membrane was washed three times with TBS-T, after which the antibody binding protein was added to an ECL Western blotting detection solution (Amersham Pharmacia Biotechnology, buckinghamahire, UK) for 1 minute and exposed to Kodak X-ray firm for detection. The Western blotting analysis was performed at various time points between 0 and 12 hours after treatment with periostin.

[5] = neural stem cells, Western blotting 0-12 hours

vascular endothelial growth factor [VEGF, reference compound]
increase in ability to induce the migration of neural stem cells compared to not treated ([1]; HB1.F3 cells, 12 hours): 25% | concentration at which ability of VEGF to induce migration was the highest ([1]; tested 5, 10 and 20 ng/ml, 12 hours): 5 ng/mL | cell migration [2]: induced cell migration

COc1cccc(-c2cc(=O)c3ccccc3o2)c1N [PD98059]
inhibition of migration of neural stem cells induced by periostin (neural stem cells; 20 nM inhibitor with periostin in lower chamber): 40% | migration of neural stem cells in control group not treated with periostin (neural stem cells; 20 nM inhibitor): inhibited

CC[C@H](CO)Nc1nc(NCc2ccccc2)c2ncn(C(C)C)c2n1 [roscovitine, reference compound]
location of DCX in migrated cells [2]: the concentration of DCX around the nuclei was inhibited

B1: periostin (protein)
chain: NNHYDKILAHSRIRGRDQGPNVCALQQILGTKKKYFSTCKNWYKKSICGQKTTVLYECCPGYMRMEGMKGCPAVLPIDHVYGTLGIVGATTTQRYSDASKLREEIEGKGSFTYFAPSNEAWDNLDSDIRRGLESNVNVELLNALHSHMINKRMLTKDLKNGMIIPSMYNNLGLFINHYPNGVVTVNCARIIHGNQIATNGVVHVIDRVLTQIGTSIQDFIEAEDDLSSFRAAAITSDILEALGRDGHFTLFAPTNEAFEKLPRGVLERIMGDKVASEALMKYHILNTLQCSESIMGGAVFETLEGNTIEIGCDGDSITVNGIKMVNKKDIVTNNGVIHLIDQVLIPDSAKQVIELAGKQQTTFTDLVAQLGLASALRPDGEYTLLAPVNNAFSDDTLSMDQRLLKLILQNHILKVKVGLNELYNGQILETIGGKQLRVFVYRTAVCIENSCMEKGSKQGRNGAIHIFREIIKPAEKSLHEKLKQDKRFSTFLSLLEAADLKELLTQPGDWTLFVPTNDAFKGMTSEEKEILIRDKNALQNIILYHLTPGVFIGKGFEPGVTNILKTTQGSKIFLKEVNDTLLVNELKSKESDIMTTNGVIHVVDKLLYPADTPVGNDQLLEILNKLIKYIQIKFVRGSTFKEIPVTVYKPIIKKYTKIIDGVPVEITEKETREERIITGPEIKYTRISTGGGETEETLKKLLQEEVTKVTKFIEGGDGHLFEDEEIKRLLQGDTPVRKLQANKKVQGSRRRLREGRSQ
notes: induces migration of neural stem cells
migration of neural stem cells over time ([1]; HB1.F3, 10 μg/ml periostin, 4, 8, 12 and 24 hours): increased with time | increase in induction of migration relative to that by VEGF ([1]; HB1.F3 cells): about 4 times | increase in ability to induce the migration of neural stem cells compared to not treated ([1]; HB1.F3 cells, 12 hours): about 100% | concentration at which ability of periostin to induce migration was the highest ([1]; tested 5, 10 and 20 μg/ml, 12 hours): 10 µg/mL | migration of neural stem cells over time ([3]; HB1.F5, 10 μg/ml periostin, 4, 8, 12 and 24 hours): increased with time | migration of neural stem cells upon treatment ([3]; HB1.F5 cells, 12 hours): increased upon treatment with periostin | time for which Nudel1 activation was maintained ([4]; activated when PAK1 activation decreased): 12 h | time after treatment at which AKT and mTOR were activated [4, 5]: 1 h | time after treatment at which PAK1 started to be activated [4, 5]: 1 h | time after treatment from which FAK was highly activated [4, 5]: 30 min | time up to which CDK5 activation was maintained [4, 5]: 12 h | time up to which PAK1 activation was maintained [4, 5]: 6 h | cell migration [2]: induced cell migration | location of DCX in migrated cells [2]: DCX was concentrated around the nuclei
